Measured values taken from PMC7305236.
No end group written: not given here.

Assays:
[1] = molecular target: delta opioid receptor (DOR) C-terminally tagged with SmBiT (UniProt P41143)
[2] = molecular target: mu opioid receptor (MOR) C-terminally tagged with SmBiT (UniProt P35372)
[3] = molecular target: atypical chemokine receptor ACKR3 (formerly CXCR7) (human) (UniProt P25106)
[4] = molecular target: ACKR3 C-terminally tagged with SmBiT (human) (UniProt P25106)
[5] = molecular target: kappa opioid receptor (KOR) C-terminally tagged with SmBiT (UniProt P41145)
[6] = molecular target: ACKR3 C-terminally tagged with SmBiT (human) (UniProt P25106); remark: listed apart in the source
[7] = molecular target: ACKR3 C-terminally tagged with SmBiT (human) (UniProt P25106); remark: listed apart in the source

ACKR3 C-terminally tagged with SmBiT (human), sequence (P25106 whole entry): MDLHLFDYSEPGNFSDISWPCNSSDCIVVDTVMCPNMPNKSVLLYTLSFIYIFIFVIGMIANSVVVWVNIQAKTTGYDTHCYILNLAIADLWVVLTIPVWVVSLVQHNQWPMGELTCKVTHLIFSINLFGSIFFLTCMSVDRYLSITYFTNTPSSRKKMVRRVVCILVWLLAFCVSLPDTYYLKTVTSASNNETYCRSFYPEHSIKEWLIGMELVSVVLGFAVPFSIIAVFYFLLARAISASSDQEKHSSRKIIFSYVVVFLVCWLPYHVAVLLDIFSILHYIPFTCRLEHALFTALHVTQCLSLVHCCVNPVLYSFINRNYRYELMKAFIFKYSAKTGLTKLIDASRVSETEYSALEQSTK
atypical chemokine receptor ACKR3 (formerly CXCR7) (human), sequence (P25106 whole entry): as above

For YGGFM [Met enkephalin], which β-arrestin-1 recruitment (NanoBiT, U87 cells): EC50 [1] is on record?
The β-arrestin-1 recruitment (NanoBiT, U87 cells): EC50 was 16.3 nM.

And the β-arrestin-1 recruitment (NanoBiT, U87 cells): EC50 [2]?
Its β-arrestin-1 recruitment (NanoBiT, U87 cells): EC50 is 419 nM.

How did the Supplementary Table 5: EC50 of β-arrestin-1 recruitment to ACKR3 [3] turn out when FGGFMRRFR-NH2 was run?
Its Supplementary Table 5: EC50 of β-arrestin-1 recruitment to ACKR3 is 16.3 nM.

With FGGFMRRV-NH2 [adrenorphin Y1F variant] as the binder, how does the potency in β-arrestin-1 recruitment against wild-type adrenorphin (U87 cells) [4] read?
Its potency in β-arrestin-1 recruitment against wild-type adrenorphin (U87 cells) is 10 fold.

FGGWMRRFR-NH2 was tested. Which Supplementary Table 5: EC50 of β-arrestin-1 recruitment to ACKR3 [3] did it give?
The Supplementary Table 5: EC50 of β-arrestin-1 recruitment to ACKR3 was 19.1 nM.

How did the Supplementary Table 5: EC50 of β-arrestin-1 recruitment to ACKR3 [3] turn out when FGGWMRRF-NH2 [second-generation peptide FGGWMRRF] was run?
The Supplementary Table 5: EC50 of β-arrestin-1 recruitment to ACKR3 was 19.1 nM.

Which results are given for YGGFMRRVGRPEWWMDYQKRYG [BAM22]?
β-arrestin-1 recruitment (NanoBiT, U87 cells): EC50 [5]: 44.2 nM; β-arrestin-1 recruitment (NanoBiT, U87 cells): EC50 [1]: 367 nM; β-arrestin-1 recruitment (NanoBiT, U87 cells): EC50 [2]: 10 nM; β-arrestin-1 recruitment (NanoBiT, U87 cells): EC50 [6]: 23.5 nM

B1: CXCL11 (ligand)
chain: FPMFKRGRCLCIGPGVKAVKVADIEKASIMYPSNNCDKIEVIITLKENKGQRCLNPKSKQARLIIKKVERKNF
With B1 as the binder, how does the β-arrestin recruitment to ACKR3 (Fig. 4b): EC50 [7] read?
Its β-arrestin recruitment to ACKR3 (Fig. 4b): EC50 is 2.2 nM.
